Positions count from the first letter of the chain named.
T1: recombinant human activated Factor VII (FVIIa) (human, UniProt P08709 61-212; P08709 213-466, ten glutamate residues of the Gla domain may be gamma-carboxylated)
T1 construct: chains tethered by a disulfide bond; also called Factor VIIa; rFVIIa
T1 sequence 1: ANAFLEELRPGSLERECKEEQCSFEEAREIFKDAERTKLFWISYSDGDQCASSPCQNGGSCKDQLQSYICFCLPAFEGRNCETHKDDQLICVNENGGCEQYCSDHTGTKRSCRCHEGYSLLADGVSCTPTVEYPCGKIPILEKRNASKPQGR
T1 sequence 2: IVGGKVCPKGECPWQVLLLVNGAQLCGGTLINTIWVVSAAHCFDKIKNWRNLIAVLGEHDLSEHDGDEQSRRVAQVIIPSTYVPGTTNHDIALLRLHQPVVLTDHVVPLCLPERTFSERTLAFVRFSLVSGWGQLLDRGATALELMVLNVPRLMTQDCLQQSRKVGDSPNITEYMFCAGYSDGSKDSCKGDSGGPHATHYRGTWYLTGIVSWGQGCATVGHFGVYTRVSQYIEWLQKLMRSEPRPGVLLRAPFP

T2: recombinant human activated FVII (FVIIa) (human, UniProt P08709 61-212; P08709 213-466, ten glutamate residues of the Gla domain may be gamma-carboxylated)
T2 sequence 1: T1 sequence 1
T2 sequence 2: T1 sequence 2

T3: sTLT1 (SEQ ID No: 3 with six histidine residues added at the C-terminus) (human, UniProt Q86YW5 16-162)
T3 construct: Soluble TLT-1 used in SPR
T3 sequence: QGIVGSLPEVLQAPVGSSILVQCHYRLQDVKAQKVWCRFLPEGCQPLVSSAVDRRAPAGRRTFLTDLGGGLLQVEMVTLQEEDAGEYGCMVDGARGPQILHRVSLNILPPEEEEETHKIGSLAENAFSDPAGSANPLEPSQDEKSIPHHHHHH

B1: mAb0077(OA) (antibody, human IgG4 S228P, kappa)
heavy: not shown
light: DIVMTQSPATLSVTAGDRVSLSCRASQGISDYLHWYQQKSHESPRLLIKYTSQPVSGIPSRFSGSGSGSEFTLSINSVEPEDVGVYYCQNGHSFPLTFGAGTKLELKRTVAAPSVFIFPPSDEQLKSGTASVVCLLNNFYPREAKVQWKVDNALQSGNSQESVTEQDSKDSTYSLSSTLTLSKADYEKHKVYACEVTHQGLSSPVTKSFNRGEC
chain: VESKYGPPCPPCPAPEFLGGPSVFLFPPKPKDTLMISRTPEVTCVVVDVSQEDPEVQFNWYVDGVEVHNAKTKPREEQFNSTYRVVSVLTVLHQDWLNGKEYKCKVSNKGLPSSIEKTISKAKGQPREPQVYTLPPSQEEMTKNQVSLTCLVKGFYPSDIAVEWESNGQPENNYKTTPPVLDSDGSFLLYSKLTVDKSRWQEGNVFSCSVMHEALHNHYTQKSLSLSLGK
notes: one-armed (OA) antibody, constant domain type E (Duobody); murine VL/VH; also called monovalent 11F2
B2: mAb0099(OA) (antibody, human IgG4 S228P, kappa)
heavy: DVQLQESGPGLVEPSQSLSLTCTVTGYSITSDSAWSWIRQFPGNKLEWMGYIQYSGSTNYNPSLKSRISVTRDTSKNQFFLRLSSVTAEDTATYYCTRSVNYYGNSFAVGYWGQGTSVTVSSASTKGPSVFPLAPCSRSTSESTAALGCLVKDYFPEPVTVSWNSGALTSGVHTFPAVLQSSGLYSLSSVVTVPSSSLGTKTYTCNVDHKPSNTKVDKRVESKYGPPCPPCPAPEFLGGPSVFLFPPKPKDTLMISRTPEVTCVVVDVSQEDPEVQFNWYVDGVEVHNAKTKPREEQFNSTYRVVSVLTVLHQDWLNGKEYKCKVSNKGLPSSIEKTISKAKGQPREPQVYTLPPSQEEMTKNQVSLSCAVKGFYPSDIAVEWESNGQPENNYKTTPPVLDSDGSFFLVSRLTVDKSRWQEGNVFSCSVMHEALHNHYTQKSLSLSLGK
light: B1 light
chain: not shown
B3: mAb0138(OA) (antibody, human IgG4 S228P, kappa)
heavy: not shown
light: EIVLTQSPATLSLSPGERATLSCRASQGISDYLHWYQQKPGEAPRLLIKYTSQPATGIPARFSGSGSGTDFTLTISSLEPEDVGVYYCQNGHSFPLTFGAGTKLELKRTVAAPSVFIFPPSDEQLKSGTASVVCLLNNFYPREAKVQWKVDNALQSGNSQESVTEQDSKDSTYSLSSTLTLSKADYEKHKVYACEVTHQGLSSPVTKSFNRGEC
chain: B1 chain
notes: one-armed (OA) antibody, constant domain type E
B4: mAb0140(OA) (antibody, human IgG4 S228P, kappa)
heavy: not shown
light: B3 light
chain: B1 chain
notes: as for B3
B5: mAb0141(OA) (antibody, human IgG4 S228P, kappa)
heavy: not shown
light: B3 light
chain: B1 chain
notes: as for B3
B6: mAb0142(OA) (antibody, human IgG4 S228P, kappa)
heavy: not shown
light: B3 light with D31S
chain: B1 chain
notes: as for B3
B7: mAb0143(OA) (antibody, human IgG4 S228P, kappa)
heavy: not shown
light: B3 light with V83F
chain: B1 chain
notes: as for B3
B8: mAb0709(OA) (antibody, human IgG4 S228P, kappa)
heavy: QVQLQESGPGLVKPSQTLSLTCTVSGYSISSDSAWSWIRQPPGKGLEWIGYIQYSGSTNYNPSLKSRVTISRDTSKNQFSLKLSSVTAADTAVYYCARSVNYYGNSFAVGPWGQGTLVTVSSASTKGPSVFPLAPCSRSTSESTAALGCLVKDYFPEPVTVSWNSGALTSGVHTFPAVLQSSGLYSLSSVVTVPSSSLGTKTYTCNVDHKPSNTKVDKRVESKYGPPCPPCPAPEFLGGPSVFLFPPKPKDTLMISRTPEVTCVVVDVSQEDPEVQFNWYVDGVEVHNAKTKPREEQFNSTYRVVSVLTVLHQDWLNGKEYKCKVSNKGLPSSIEKTISKAKGQPREPQVYTLPPSQEEMTKNQVSLSCAVKGFYPSDIAVEWESNGQPENNYKTTPPVLDSDGSFFLVSRLTVDKSRWQEGNVFSCSVMHEALHNHYTQKSLSLSLGK
light: B3 light with V83F, G84A, A100Q, L106I
chain: not shown
notes: one-armed (OA) antibody, constant domain type F (knob-in-hole)
B9: mAb0705(OA) (antibody, human IgG4 S228P, kappa)
heavy: B8 heavy with P111Y
light: B3 light with V83F, G84A, A100Q, L106I
chain: not shown
notes: one-armed (OA) antibody, constant domain type F (knob-in-hole); also called monovalent humanized 11F2
B10: mAb0706(OA) (antibody, human IgG4 S228P, kappa)
heavy: B8 heavy with K13E, P111Y
light: B3 light with E42Q, V83F, G84A, A100Q, L106I
chain: not shown
notes: as for B8
B11: mAb0707(OA) (antibody, human IgG4 S228P, kappa)
heavy: B8 heavy with K13E
light: B3 light with V83F, G84A, A100Q, L106I
chain: not shown
notes: as for B8
B12: mAb0710(OA) (antibody, human IgG4 S228P, kappa)
heavy: B8 heavy with P41F
light: B3 light with E42Q, V83F, G84A, A100Q, L106I
chain: not shown
notes: as for B8
B13: biAb0245 (bispecific antibody, human IgG4 S228P, kappa)
heavy 1: B8 heavy with Q1D, A108W, G110D, S368T, A370L, F407L, V409Y, R411K
light 1: B1 light
heavy 2: not shown
light 2: DIVMTQTPLSSPVTLGQPASISCRSSQSLVHRQGNTYFHWLQQRPGQPPRLLIYKVSNRFSGVPDRFSGSGAGTDFTLKISRVEAEDVGVYYCSQSTHVPYTFGQGTKLEIKRTVAAPSVFIFPPSDEQLKSGTASVVCLLNNFYPREAKVQWKVDNALQSGNSQESVTEQDSKDSTYSLSSTLTLSKADYEKHKVYACEVTHQGLSSPVTKSFNRGEC
notes: also called anti-FVII(a)/anti-TLT-1 bispecific antibody of mAb0873 and mAb1076
B14: biAb0011 (bispecific antibody, human IgG4 S228P, kappa)
heavy 1: B8 heavy with K13E, S30T, G45K, P111Y, S368T, A370L, F407L, V409Y, R411K
light 1: B3 light with I29V, E42Q, T51A, V83F, G84A, A100Q, L106I
heavy 2: not shown
light 2: B13 light 2
notes: Duobody, constant domain type H (IgG4): anti-FVII(a) arm mAb0875, anti-TLT-1 arm mAb1076; also called mAb0875 x mAb1076
B15: biAb0016 (bispecific antibody, human IgG4 S228P, kappa)
heavy 1: B8 heavy with K13E, S30T, G45K, P111Y, S368T, A370L, F407L, V409Y, R411K
light 1: B3 light with I29V, E42Q, T51A, V83F, G84A, A100Q, L106I
heavy 2: not shown
light 2: B13 light 2 with Q33P
notes: Duobody, constant domain type H (IgG4): anti-FVII(a) arm mAb0875, anti-TLT-1 arm mAb1038; also called mAb0875 x mAb1038
B16: biAb0091 (bispecific antibody, human IgG4 S228P, kappa)
heavy 1: B8 heavy with K13E, S30T, G45K, P111Y, S368T, A370L, F407L, V409Y, R411K
light 1: B3 light with I29V, E42Q, T51A, V83F, G84A, A100Q, L106I
heavy 2: not shown
light 2: B13 light 2 with Q33N
notes: Duobody, constant domain type H (IgG4): anti-FVII(a) arm mAb0875, anti-TLT-1 arm mAb1049; also called mAb0875 x mAb1049
B17: biAb0096 (bispecific antibody, human IgG4 S228P, kappa)
heavy 1: B8 heavy with K13E, S30T, G45K, P111Y, S368T, A370L, F407L, V409Y, R411K
light 1: B3 light with I29V, E42Q, T51A, V83F, G84A, A100Q, L106I
heavy 2: not shown
light 2: B13 light 2 with Q33N
notes: Duobody, constant domain type H (IgG4): anti-FVII(a) arm mAb0875, anti-TLT-1 arm mAb1047; also called mAb0875 x mAb1047

These binders were tested against T1, recombinant human activated Factor VII … (assay: SPR (Biacore)).
Work on B1 yielded a Kd of 0.041 nM. Binder B2 has a Kd of 0.12 nM. B3 gave a Kd of 0.13 nM. B4 showed a Kd of 0.083 nM. Binder B5 has a Kd of 0.078 nM. B6 was tested, and the Kd was 1 nM. B7 showed a Kd of 0.079 nM. Binder B8 has a Kd of 0.104 nM. In the case of B9, the Kd is reported as 0.0505 nM. Work on B10 yielded a Kd of 0.0542 nM. B11 was tested, and the Kd was 0.106 nM. Work on B12 yielded a Kd of 0.128 nM. B13 gave a Kd of 600 nM.

These binders were tested against T1, recombinant human activated Factor VII … (assay: cell-based or functional assay).
With B1 the “AT inhibition (kinh %)” value was 119% and the “TGT activity (%% FVIIa)” value was 103%. For B2, the “AT inhibition (kinh %)” value was 117% and the “TGT activity (%% FVIIa)” value was 98%. With B3 the “AT inhibition (kinh %)” value was 105% and the “TGT activity (%% FVIIa)” value was 99%. In the case of B4, the “AT inhibition (kinh %)” value is reported as 106% and the “TGT activity (%% FVIIa)” value is reported as 100%. B5 was tested, and the “AT inhibition (kinh %)” value was 109% and the “TGT activity (%% FVIIa)” value was 103%. In the case of B6, the “AT inhibition (kinh %)” value is reported as 114% and the “TGT activity (%% FVIIa)” value is reported as 106%. For B7, the “AT inhibition (kinh %)” value was 109% and the “TGT activity (%% FVIIa)” value was 107%. In the case of B8, the “AT inhibition (kinh %)” value is reported as 137% and the “TGT activity (%% FVIIa)” value is reported as 103%. With B9 the “AT inhibition (kinh %)” value was 129% and the “TGT activity (%% FVIIa)” value was 100%. B10 was tested, and the “AT inhibition (kinh %)” value was 132% and the “TGT activity (%% FVIIa)” value was 101%. With B11 the “AT inhibition (kinh %)” value was 129% and the “TGT activity (%% FVIIa)” value was 102%. B12 was tested, and the “AT inhibition (kinh %)” value was 136% and the “TGT activity (%% FVIIa)” value was 102%.

Each binder was assayed against T2, recombinant human activated FVII (FVIIa) (assay: cell-based or functional assay).
For B14, the “Stimulation (fold): FXa generated by FVIIa with lipidated TLT-1 and 100 nM biAb, relative to free FVIIa” value (from here on “Stimulation (fold) … relative to free FVIIa”) was 20.3 fold. B15 was tested, and the “Stimulation (fold) … relative to free FVIIa” value was 17.3 fold. For B16, the “Stimulation (fold) … relative to free FVIIa” value was 11.3 fold. For B17, the “Stimulation (fold) … relative to free FVIIa” value was 12.4 fold.

Each binder was assayed against T3, sTLT1 (SEQ ID No: 3 with six histidine …) (assay: dissociation constant listed with the stimulatory activities; value of the anti-TLT-1 arm).
B14 showed a Kd of 2.9 nM. B15 showed a Kd of 19 nM. With B16 the Kd was 320 nM. B17 showed a Kd of 75 nM.

What follows are binders tested against T2, recombinant human activated FVII (FVIIa) (assay: dissociation constant listed with the stimulatory activities; method not given).
B14 gave a Kd of 0.28 nM. B15 showed a Kd of 0.28 nM. Binder B16 has a Kd of 0.28 nM. Work on B17 yielded a Kd of 0.28 nM.
